# The supplement of paper PMC10724198
# ± gives the standard deviation of the averaged measurements.
# Key:
# Saccharomyces cerevisiae [1] = assay: protein stability index of tFT-peptide fusion (C-terminal peptide) (PSI (0-1 scale)); higher = more stable (slower turnover)
# Protocol: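 MPS profiling in S. cerevisiae of the tFT-X12 degron library: putative degron peptides plus stable controls, 12 aa, fused to the C-terminus of a sfGFP-mCherry timer. Cells are FACS-sorted into 8 mCherry/sfGFP bins and deep-sequenced. PSI runs from 0 (unstable) to 1 (stable). Backgrounds are wild type, das1Δ and doa10Δ at 30 °C, and wild type, das1Δ, cdc34-1 and cdc53-1 at 37 °C; 2-3 technical replicates each.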
# Saccharomyces cerevisiae [2] = assay: as above; conditions: genetic background: wild type; temperature: 30 C
# [3] = genetic background: cdc34-1, temperature: 37 C
# [4] = genetic background: cdc53-1, temperature: 37 C
# [5] = genetic background: das1 deletion, temperature: 30 C
# [6] = genetic background: das1 deletion, temperature: 37 C
# [7] = genetic background: doa10 deletion, temperature: 30 C
# [8] = genetic background: wild type, temperature: 30 C
# [9] = genetic background: wild type, temperature: 37 C
# 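Further: PSI is a weighted mean of sequencing reads over stability bins, variants kept only with over 10 reads, mCherry proximal and sfGFP distal, peptide attached via GGGS linker.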
Sequence,protein stability index (Saccharomyces cerevisiae [1]; [3]),protein stability index (Saccharomyces cerevisiae [1]; [4]),protein stability index (Saccharomyces cerevisiae [1]; [5]),protein stability index (Saccharomyces cerevisiae [1]; [6]),protein stability index (Saccharomyces cerevisiae [1]; [7]),protein stability index (Saccharomyces cerevisiae [1]; [8]),protein stability index (Saccharomyces cerevisiae [1]; [9]),protein stability index (Saccharomyces cerevisiae [2])
VFMTLHCITIYK,0.452 ± 0.016,0.537 ± 0.068,0.379 ± 0.029,0.519 ± 0.052,0.338 ± 0.0065,0.348 ± 0.051,0.547 ± 0.0084,0.458 ± 0.0029
VFSCFLFLVVLV,0.129 ± 0.048,0.104 ± 0.011,0.205 ± 0.035,0.283 ± 0.023,0.279 ± 0.012,0.169 ± 0.019,0.2247 ± 0.0019,0.242 ± 0.0034
VFVFLFVFLFLL,0.147 ± 0.03,0.138 ± 0.041,0.214 ± 0.047,0.313 ± 0.013,0.397 ± 0.098,0.2 ± 0.038,0.253 ± 0.015,0.177 ± 0.043
VGCHISAFSDLI,0.699 ± 0.022,0.744 ± 0.043,0.66 ± 0.023,0.752 ± 0.011,0.66 ± 0.037,0.665 ± 0.032,0.7489 ± 0.0017,0.762 ± 0.017
VGFIVCFFFSFG,0.334 ± 0.049,0.456 ± 0.0062,0.325 ± 0.033,0.459 ± 0.017,0.3 ± 0.031,0.313 ± 0.026,0.453 ± 0.0084,0.432 ± 0.02
VGIVWELGCWMG,0.365 ± 0.052,0.49 ± 0.03,0.325 ± 0.023,0.543 ± 0.023,0.2794 ± 0.00095,0.303 ± 0.021,0.508 ± 0.0067,0.425 ± 0.019
VGTGVGEGGGVV,0.679 ± 0.029,0.72922 ± 0.00013,0.645 ± 0.016,0.73 ± 0.011,0.654 ± 0.018,0.649 ± 0.013,0.719 ± 0.022,0.711 ± 0.011
VICVVLSKVFLF,0.483 ± 0.054,0.5728 ± 0.0027,0.495 ± 0.027,0.588 ± 0.0071,0.416 ± 0.0083,0.393 ± 0.02,0.483 ± 0.013,0.444 ± 0.014
VIGFGEVWIRCV,0.358 ± 0.018,0.57 ± 0.058,0.435 ± 0.025,0.619 ± 0.023,0.0708 ± 0.013,0.0831 ± 0.01,0.0868 ± 0.013,0.141 ± 0.0034
VILYCSNVAVCS,0.355 ± 0.048,0.42 ± 0.013,0.246 ± 0.019,0.4263 ± 0.0013,0.212 ± 0.004,0.248 ± 0.023,0.399 ± 0.011,0.294 ± 0.0038
VIVKSRTTLYIS,0.49 ± 0.015,0.616 ± 0.0078,0.538 ± 0.013,0.613 ± 0.0096,0.092 ± 0.018,0.107 ± 0.018,0.193 ± 0.023,0.155 ± 0.0099
VIWVLGALASWG,0.5892 ± 0.0018,0.6304 ± 0.0041,0.479 ± 0.035,0.632 ± 0.011,0.468 ± 0.02,0.479 ± 0.0059,0.618 ± 0.015,0.556 ± 0.098
VKVIILYKIIEV,0.353 ± 0.045,0.494 ± 0.044,0.327 ± 0.029,0.5352 ± 0.0045,0.29 ± 0.0094,0.323 ± 0.027,0.549 ± 0.08,0.381 ± 0.038
VLAYFCYVVFVI,0.306 ± 0.01,0.343 ± 0.0056,0.27 ± 0.0087,0.3896 ± 0.0036,0.291 ± 0.0044,0.263 ± 0.011,0.354 ± 0.0069,0.314 ± 0.016
VLCMSIFIVFGI,0.197 ± 0.031,0.287 ± 0.023,0.195 ± 0.024,0.352 ± 0.019,0.1774 ± 0.0013,0.196 ± 0.011,0.303 ± 0.011,0.371 ± 0.052
VLLLLGGIVCVM,0.236 ± 0.01,0.227 ± 0.018,0.222 ± 0.024,0.412 ± 0.0065,0.206 ± 0.012,0.229 ± 0.018,0.395 ± 0.019,0.327 ± 0.026
VLLLRRPLLVFS,0.0781 ± 0.025,0.105 ± 0.037,0.149 ± 0.028,0.229 ± 0.014,0.128 ± 0.017,0.148 ± 0.024,0.187 ± 0.0061,0.244 ± 0.021
VLLVRIFLCWVC,0.178 ± 0.013,0.256 ± 0.049,0.184 ± 0.017,0.338 ± 0.0097,0.13 ± 0.0046,0.118 ± 0.016,0.1826 ± 0.001,0.16 ± 0.039
VLLYRIAPRLLH,0.597 ± 0.079,0.6841 ± 0.0027,0.6298 ± 0.0035,0.735 ± 0.016,0.181 ± 0.019,0.202 ± 0.023,0.4082 ± 0.0026,0.303 ± 0.03
VLSLYWLIISRL,0.717 ± 0.04,0.736 ± 0.0093,0.616 ± 0.016,0.742 ± 0.012,0.446 ± 0.021,0.42 ± 0.0056,0.566 ± 0.021,0.4672 ± 0.00061

Sequence,protein stability index (Saccharomyces cerevisiae [1]; [3]),protein stability index (Saccharomyces cerevisiae [1]; [4]),protein stability index (Saccharomyces cerevisiae [1]; [5]),protein stability index (Saccharomyces cerevisiae [1]; [6]),protein stability index (Saccharomyces cerevisiae [1]; [7]),protein stability index (Saccharomyces cerevisiae [1]; [8]),protein stability index (Saccharomyces cerevisiae [1]; [9]),protein stability index (Saccharomyces cerevisiae [2])
VLVSVSLRVCMV,0.0542 ± 0.021,0.101 ± 0.025,0.106 ± 0.03,0.206 ± 0.015,0.083 ± 0.012,0.108 ± 0.024,0.178 ± 0.016,0.162 ± 0.039
VLVVLRSEVSLS,0.286 ± 0.0038,0.398 ± 0.022,0.227 ± 0.027,0.3847 ± 0.0022,0.1948 ± 0.0011,0.22 ± 0.02,0.371 ± 0.0053,0.284 ± 0.015
VLVVVAFVALPR,0.264 ± 0.0083,0.41 ± 0.053,0.285 ± 0.015,0.485 ± 0.035,0.275 ± 0.01,0.282 ± 0.032,0.461 ± 0.031,0.372 ± 0.016
VLWSCCGGVRVR,0.587 ± 0.014,0.629 ± 0.013,0.465 ± 0.023,0.65 ± 0.022,0.452 ± 0.03,0.483 ± 0.0067,0.612 ± 0.018,0.516 ± 0.036
VLWVYLFLFVIF,0.266 ± 0.04,0.291 ± 0.033,0.248 ± 0.022,0.346 ± 0.0079,0.235 ± 0.025,0.211 ± 0.019,0.325 ± 0.019,0.255 ± 0.05
VLYSRFPPPLIA,0.51169 ± 7.2e-05,0.537 ± 0.0073,0.43 ± 0.022,0.554 ± 0.02,0.396 ± 0.0062,0.415 ± 0.023,0.5375 ± 0.0029,0.4803 ± 0.0032
VMWFVLVGLCIL,0.4219 ± 0.0041,0.449 ± 0.035,0.382 ± 0.044,0.506 ± 0.021,0.366 ± 0.0077,0.378 ± 0.018,0.496 ± 0.006,0.473 ± 0.033
VNTLCCVFRCNL,0.96 ± 0.0047,0.9524 ± 0.0023,0.816 ± 0.013,0.889 ± 0.026,0.8247 ± 0.0043,0.826 ± 0.028,0.8905 ± 0.0035,0.805 ± 0.045
VPRGAALIFLCF,0.574 ± 0.043,0.646 ± 0.025,0.53 ± 0.036,0.6215 ± 0.0013,0.449 ± 0.025,0.464 ± 0.023,0.582 ± 0.0063,0.517 ± 0.055
VPRSLYSVLRLA,0.525 ± 0.062,0.685 ± 0.026,0.652 ± 0.044,0.714 ± 0.012,0.0744 ± 0.01,0.0833 ± 0.0025,0.11 ± 0.0054,0.2 ± 0.025
VPSPWLIRSLMS,0.648 ± 0.024,0.687 ± 0.019,0.643 ± 0.037,0.716 ± 0.026,0.224 ± 0.0045,0.278 ± 0.026,0.518 ± 0.039,0.409 ± 0.023
VQLFCLRREMII,0.544 ± 0.025,0.609 ± 0.009,0.503 ± 0.027,0.583 ± 0.043,0.335 ± 0.0084,0.365 ± 0.019,0.506 ± 0.013,0.381 ± 0.0047
VRELGVGGWRRQ,0.58 ± 0.08,0.7 ± 0.0064,0.619 ± 0.016,0.752 ± 0.004,0.11 ± 0.012,0.129 ± 0.012,0.405 ± 0.0063,0.283 ± 0.01
VRLLLIFRLLVI,0.463 ± 0.0077,0.539 ± 0.013,0.417 ± 0.039,0.551 ± 0.0066,0.2909 ± 0.0022,0.267 ± 0.038,0.447 ± 0.02,0.299 ± 0.09
VRNYWKYVVIFP,0.624 ± 0.0047,0.711 ± 0.023,0.617 ± 0.0079,0.7338 ± 0.0065,0.578 ± 0.011,0.569 ± 0.023,0.674 ± 0.068,0.569 ± 0.15
VSCFIVSFWVFL,0.389 ± 0.0086,0.461 ± 0.033,0.355 ± 0.02,0.546 ± 0.008,0.309 ± 0.034,0.323 ± 0.031,0.495 ± 0.052,0.471 ± 0.012
VSFEFSVLWTVF,0.548 ± 0.073,0.592 ± 0.028,0.515 ± 0.022,0.574 ± 0.029,0.384 ± 0.016,0.383 ± 0.017,0.469 ± 0.005,0.46 ± 0.018
VSLCVVYGLVVG,0.337 ± 0.024,0.377 ± 0.022,0.29 ± 0.029,0.446 ± 0.015,0.2523 ± 0.0025,0.289 ± 0.022,0.411 ± 0.0082,0.373 ± 0.017
VSLIFCLFFLSC,0.424 ± 0.0047,0.502 ± 0.044,0.402 ± 0.018,0.52 ± 0.0063,0.395 ± 0.024,0.404 ± 0.027,0.492 ± 0.027,0.442 ± 0.013
